The text below walks through data of US20100035825A1 (University of California, published 2010).

The labels stand for the following.
B3: C/EBPβ-PThr^217 (mouse C/EBPβ phosphorylated on Thr217) (other)
chain: MHRLLAWDAACLPPPPAAFRPMEVANFYYEPDCLAYGAKAARAAPRAPAAEPAIGEHERAIDFSPYLEPLAPAADFAAPAPAHHDFLSDLFADDYGAKPSKKPADYGYVSLGRAGAKAAPPACFPPPPPAALKAEPGFEPADCKRADDAPAMAAGFPFALRAYLGYQATPSGSSGSLSTSSSSSPPGTPSPADAKAAPAACFAGPPAAPAKAKAKKTVDKLSDEYKMRRERNNIAVRKSRDKAKMRNLETQHKVLELTAENERLQKKVEQLSRELSTLRNLFKQLPEPLLASAGHC
modifications: phosphothreonine at 217
notes: Endogenous, phosphorylated in stellate cells after CCl4 or on collagen type I
B4: purified recombinant procaspase 8 (human, Alexis Biochemicals) (enzyme, UniProt Q14790 217-479, looked up)
chain: SESQTLDKVYQMKSKPRGYCLIINNHNFAKAREKVPKLHSIRDRNGTHLDAGALTTTFEELHFEIKPHDDCTVEQIYEILKIYQLMDHSNMDCFICCILSHGDKGIIYGTDGQEAPIYELTSQFTGLKCPSLAGKPKVFFIQACQGDNYQKGIPVETDSEEQPYLEMDLSSPQTRYIPDEADFLLGMATVNNCVSYRNPAEGTWYIQSLCQSLRERCPRGDDILTILTEVNYEVSNKDDKKNMGKQMPQPTFTLRKKLVFPSD
notes: also called recombinant caspase 8; procaspases 8; not shown: 21 amino acid linker at the N-terminus from the expression vector

For experiment [1], the target named is B3. The experiment in a line: C/EBPβ immunoprecipitation and immunoblot, stellate cells of CCl4-treated C/EBPβ+/+ mice. (A western blot detects proteins with antibodies after separation by electrophoresis.)
In experiment [2] the target is T1, procaspase 1 (endogenous, mouse hepatic stellate cells) (mouse, UniProt P29452 1-402).
T1 construct: also called procaspases 1
T1 sequence (looked up): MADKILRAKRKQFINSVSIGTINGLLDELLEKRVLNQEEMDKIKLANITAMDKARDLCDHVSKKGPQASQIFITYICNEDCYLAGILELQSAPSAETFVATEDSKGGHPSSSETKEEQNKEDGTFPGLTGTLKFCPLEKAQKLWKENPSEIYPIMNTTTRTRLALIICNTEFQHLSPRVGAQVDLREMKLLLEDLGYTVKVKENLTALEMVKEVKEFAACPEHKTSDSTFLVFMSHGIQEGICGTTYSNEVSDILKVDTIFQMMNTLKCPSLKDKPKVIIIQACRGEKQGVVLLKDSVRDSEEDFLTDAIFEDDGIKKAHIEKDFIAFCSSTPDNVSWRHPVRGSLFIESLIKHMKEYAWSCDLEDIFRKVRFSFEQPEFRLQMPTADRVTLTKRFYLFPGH
Briefly: anti-HA co-immunoprecipitation and immunoblot, transfected activated stellate cells.
Text: (§1) The expressed peptides were immunoprecipitated with anti-HA antibodies.

The target in experiment [3] is T2, procaspase 8 (endogenous, mouse hepatic stellate cells) (mouse, UniProt O89110 1-480).
T2 construct: also called procaspases 8
T2 sequence (looked up): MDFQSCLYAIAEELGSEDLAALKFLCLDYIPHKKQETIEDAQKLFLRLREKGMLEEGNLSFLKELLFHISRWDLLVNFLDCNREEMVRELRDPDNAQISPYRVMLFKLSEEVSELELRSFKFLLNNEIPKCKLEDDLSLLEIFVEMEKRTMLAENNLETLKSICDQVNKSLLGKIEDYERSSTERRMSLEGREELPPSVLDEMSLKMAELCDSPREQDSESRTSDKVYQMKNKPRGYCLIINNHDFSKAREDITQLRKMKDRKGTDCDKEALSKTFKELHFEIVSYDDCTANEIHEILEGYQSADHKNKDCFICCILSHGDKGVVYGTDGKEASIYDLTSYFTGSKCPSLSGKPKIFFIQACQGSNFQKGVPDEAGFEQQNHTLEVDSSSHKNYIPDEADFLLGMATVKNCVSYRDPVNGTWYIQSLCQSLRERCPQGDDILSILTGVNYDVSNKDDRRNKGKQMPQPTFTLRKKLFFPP
Described as above.
Text: as §1

The target in experiment [4] is B4. The experiment in a line: co-immunoprecipitation of purified recombinant proteins (C/EBPβ peptides 200 µM), immunoblot, densitometry; reference C/EBPβ-HA-Ala217.
Experiment [5] concerns the target T3, procaspase 7 (endogenous, mouse hepatic stellate cells) (mouse, UniProt P97864 1-303).
T3 construct: also called effector procaspase 7
T3 sequence (looked up): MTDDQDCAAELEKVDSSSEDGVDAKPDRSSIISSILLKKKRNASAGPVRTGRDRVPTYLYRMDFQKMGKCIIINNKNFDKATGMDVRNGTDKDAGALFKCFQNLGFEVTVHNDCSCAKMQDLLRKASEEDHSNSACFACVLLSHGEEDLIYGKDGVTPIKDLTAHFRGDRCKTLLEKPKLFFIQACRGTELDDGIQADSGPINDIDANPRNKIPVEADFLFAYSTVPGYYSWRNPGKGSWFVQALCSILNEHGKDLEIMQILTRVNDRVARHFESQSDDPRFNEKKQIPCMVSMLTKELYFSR
Briefly: C/EBPβ immunoprecipitation and immunoblot, stellate cells of CCl4-treated C/EBPβ+/+ mice.

Experiment [6] has as its target T4, procaspase 9 (endogenous, mouse hepatic stellate cells) (mouse, UniProt Q8C3Q9 1-454).
T4 construct: also called effector procaspase 9
T4 sequence (looked up): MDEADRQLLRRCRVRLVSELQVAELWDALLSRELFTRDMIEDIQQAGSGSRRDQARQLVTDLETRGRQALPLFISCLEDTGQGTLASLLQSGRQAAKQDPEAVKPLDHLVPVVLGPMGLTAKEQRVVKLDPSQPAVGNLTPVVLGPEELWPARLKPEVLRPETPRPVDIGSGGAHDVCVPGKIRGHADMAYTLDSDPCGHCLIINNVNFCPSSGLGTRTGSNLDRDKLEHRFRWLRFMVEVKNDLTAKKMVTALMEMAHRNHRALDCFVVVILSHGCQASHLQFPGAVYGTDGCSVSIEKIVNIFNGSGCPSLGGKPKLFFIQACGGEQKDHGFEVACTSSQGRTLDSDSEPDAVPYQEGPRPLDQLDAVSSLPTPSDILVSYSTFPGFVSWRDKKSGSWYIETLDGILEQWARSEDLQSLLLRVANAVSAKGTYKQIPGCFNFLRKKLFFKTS
The description is as above.

Experiment [7] addresses T5, C/EBPβ-HA-Ala^217 (mouse, UniProt P28033 1-296, limits assumed).
T5 construct: not shown: HA (hemagglutinin) tag
T5 sequence: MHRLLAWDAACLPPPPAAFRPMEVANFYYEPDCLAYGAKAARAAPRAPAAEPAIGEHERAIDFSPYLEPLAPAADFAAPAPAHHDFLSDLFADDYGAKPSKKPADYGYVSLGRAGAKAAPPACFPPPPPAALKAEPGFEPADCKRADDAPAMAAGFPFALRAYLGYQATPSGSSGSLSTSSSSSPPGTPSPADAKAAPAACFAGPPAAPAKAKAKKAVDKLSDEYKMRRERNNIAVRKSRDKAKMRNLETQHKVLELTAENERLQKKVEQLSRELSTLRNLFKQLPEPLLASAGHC
The experiment in a line: co-immunoprecipitation of purified recombinant proteins.

B1: procaspase 3 (endogenous, mouse hepatic stellate cells) (enzyme, UniProt P70677 1-277, looked up)
chain: MENNKTSVDSKSINNFEVKTIHGSKSVDSGIYLDSSYKMDYPEMGICIIINNKNFHKSTGMSSRSGTDVDAANLRETFMGLKYQVRNKNDLTREDILELMDSVSKEDHSKRSSFVCVILSHGDEGVIYGTNGPVELKKLTSFFRGDYCRSLTGKPKLFIIQACRGTELDCGIETDSGTDEEMACQKIPVEADFLYAYSTAPGYYSWRNSKDGSWFIQSLCSMLKLYAHKLEFMHILTRVNRKVATEFESFSLDSTFHAKKQIPCIVSMLTKELYFYH
notes: also called effector procaspase 3
For the molecule B1, the binding result in experiment [1] is recorded as “no binding”.

B2: C/EBPβ-HA-Glu^217 (other, not shown: small tags and cut ends)
chain: MHRLLAWDAACLPPPPAAFRPMEVANFYYEPDCLAYGAKAARAAPRAPAAEPAIGEHERAIDFSPYLEPLAPAADFAAPAPAHHDFLSDLFADDYGAKPSKKPADYGYVSLGRAGAKAAPPACFPPPPPAALKAEPGFEPADCKRADDAPAMAAGFPFALRAYLGYQATPSGSSGSLSTSSSSSPPGTPSPADAKAAPAACFAGPPAAPAKAKAKKEVDKLSDEYKMRRERNNIAVRKSRDKAKMRNLETQHKVLELTAENERLQKKVEQLSRELSTLRNLFKQLPEPLLASAGHC
Take B2: the binding result in experiment [2] and in experiment [3] was “binds” each time. For the same molecule, the “fold more co-immunoprecipitated than the Ala^217 peptides (densitometry)” value in experiment [4] was found to be 12 fold. For B3, the binding result in experiment [5] and in experiment [6] was “no binding” each time.

Turning to B4, in experiment [7], the binding result was “no binding”.
